# Source: patent US20250320281A1
# Key:
# Assay in all cases: cell-based or functional assay
# [1] = biological target: HIV-1 Env of isolate 92UG005 (clade D pseudovirus) (HIV-1)
# [2] = biological target: HIV-1 Env of isolate 93TH305, clade B, on pseudovirus (HIV-1)
# [3] = biological target: HIV-1 Env of isolate 98IN022 (clade C) (HIV-1 isolate 98IN022)
# [4] = biological target: HIV-1 Env of isolate APV_13, clade B, on pseudovirus (HIV-1)
# [5] = biological target: HIV-1 Env of isolate LAVIC_18 (HIV-1)
# [6] = biological target: HIV-1 Env of isolate LAVI_C22 (HIV-1)
# [7] = biological target: HIV-1 Env of isolate LAVI_C3 (HIV-1)
# [8] = biological target: HIV-1 Env of isolate MGRM-D-002 (clade D pseudovirus) (HIV-1)
# [9] = biological target: HIV-1 Env of isolate MGRM-D-018 (clade D pseudovirus) (HIV-1)
# [10] = biological target: HIV-1 Env of isolate MGRM-D-028 (clade D pseudovirus) (HIV-1)
# [11] = biological target: HIV-1 Env of isolate MGRM-D-029 (clade D pseudovirus) (HIV-1)
# [12] = biological target: HIV-1 Env of isolate PVO.4 (Acute), clade B, on pseudovirus (HIV-1)
# [13] = biological target: HIV-1 Env of isolate QH0692.42 (Acute), clade B, on pseudovirus (HIV-1)
# [14] = biological target: HIV-1 Env of isolate VLGCA1 (clade A pseudovirus) (HIV-1)
# [15] = biological target: HIV-1 Env of pseudovirus MGRM-AE-006 (clade CRF01_AE) (HIV-1)
# [16] = biological target: HIV-1 Env of pseudovirus MGRM-AE-008 (clade CRF01_AE) (HIV-1)
# [17] = biological target: HIV-1 Env of pseudovirus MGRM-Chronic-B-024 (HIV-1)
# [18] = biological target: HIV-1 NL43 envelope glycoprotein (Env) on pseudovirus (HIV-1)
# [19] = biological target: HIV-1 envelope glycoprotein (Env) of isolate 92UG031, clade A (HIV-1)
# [20] = biological target: HIV-1 envelope glycoprotein (Env) of isolate MGRM-A-013, clade A (HIV-1)
# [21] = biological target: aMLV envelope protein on pseudovirus
# Chain of 1443_C16 (PG16) (TCN-116) (antibody) (VH): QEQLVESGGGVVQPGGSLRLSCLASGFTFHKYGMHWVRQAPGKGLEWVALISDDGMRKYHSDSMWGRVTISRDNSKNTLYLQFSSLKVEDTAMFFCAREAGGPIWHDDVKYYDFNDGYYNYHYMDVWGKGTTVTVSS
# Chain of 1443_C16 (PG16) (TCN-116) (antibody) (VL): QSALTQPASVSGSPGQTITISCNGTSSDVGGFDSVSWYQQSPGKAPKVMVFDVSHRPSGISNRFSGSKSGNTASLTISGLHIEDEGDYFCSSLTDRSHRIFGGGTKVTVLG
Substance,"IC50 (µg/ml), pseudovirus neutralization [1] [µg/mL]","IC50 (µg/ml), pseudovirus neutralization [2] [µg/mL]","IC50 (µg/ml), pseudovirus neutralization [3] [µg/mL]","IC50 (µg/ml), pseudovirus neutralization [4] [µg/mL]",IC50 [5] [µg/mL],IC50 [6] [µg/mL],IC50 [7] [µg/mL],"IC50 (µg/ml), pseudovirus neutralization [8] [µg/mL]","IC50 (µg/ml), pseudovirus neutralization [9] [µg/mL]","IC50 (µg/ml), pseudovirus neutralization [10] [µg/mL]","IC50 (µg/ml), pseudovirus neutralization [11] [µg/mL]","IC50 (µg/ml), pseudovirus neutralization [12] [µg/mL]","IC50 (µg/ml), pseudovirus neutralization [13] [µg/mL]","IC50 (µg/ml), pseudovirus neutralization [14] [µg/mL]",IC50 [15] [µg/mL],IC50 [16] [µg/mL],"IC50 (µg/ml), pseudovirus neutralization [17] [µg/mL]","IC50, pseudovirus neutralization [18] [µg/mL]","IC50 (µg/ml), pseudovirus neutralization [19] [µg/mL]","IC50 (µg/ml), pseudovirus neutralization [20] [µg/mL]",further results
4E10 (antibody),7.46,12.3,0.53,7.33,> 50,2.02,2.85,9.44,3.9,1.28,5.3,18.3,12.7,4.58,0.23,0.94,9.19,4.95,4.94,1.46,"IC50, pseudovirus neutralization [21]: > 50 µg/mL"
1443_C16 (PG16) (TCN-116) (antibody),> 50,19.3,0.003,> 50,0.02,0.02,9.55,0.01,0.004,> 50,> 50,5.43,> 50,0.18,0.03,3.25,0.01,< 0.0025,0.43,0.09,"IC50, pseudovirus neutralization [21]: > 50 µg/mL"
b12 (antibody),> 50,4.17,0.42,> 50,> 50,7.64,0.94,> 50,1.39,0.78,> 50,> 50,0.73,> 50,> 50,> 50,> 50,0.06,> 50,7.04,"IC50, pseudovirus neutralization [21]: > 50 µg/mL"
2F5 (antibody),8.61,7.61,> 50,3.81,> 50,> 50,> 50,24.6,4.05,> 50,> 50,> 50,5.42,3.9,0.18,> 50,> 50,2.41,3.81,0.66,"IC50, pseudovirus neutralization [21]: > 50 µg/mL"
